Experimental data from patent US11781164B2, “Demethylation of reticuline and derivatives thereof with fungal cytochrome P450” (priority 2017, dated 2023).

B1: CYPDN8: cytochrome P450 homolog A0A0C7AZL4 from Rhizopus microsporus, codon-optimized (protein, listed as Rhizopus microsporus)
chain: MDHLIQVYNSSTQVLIPVLQKRSKASYITAAIALIIAQRLYSYFRVPKHLRGFPKLPYFGIAKSFFAKESPRERVKKYILPIINERDGFYISNIPFGWMLYVTNPIAAKQILLKSNGFPKNHGLLEDMGENLFIEFIGKDNVVLTNGDTWKRQRKVMNPAFHHSLPIKTMSNVVFSLISVIDQANGTVPVASTMQNFTLDTLGLAIFGFDFKALQGDGDEWTKTYRLVSDCLFDPIINVFSSYSFIFDRIYPRRRRGAMATRKLGEKFLEIAQQKRMEIKSGAFADVPDNEKDLLTLMLEAEEKGDVWTSEDELRHNIAVLFLAGHDTTAHALSFCFYHLAKNKDIQQKLRKEVLDLLGDEPVDVVPTVEQLKDMQYLNMVIKENLRMNSPADMLFSRDVQEDIVLANTFIPKGTVISINIEALHCNPKLWHNPDQFDPERFAPGGEHEQHEGMTWLPFSNGTRQCLGMNFSLFEQRLVIAMILKKYEISIPEDSIHRNHIINDMPFNVAPKSLELTFTKRY
modifications: codon-optimized
B2: CYPDN17: cytochrome P450 homolog A0A2G4SQ34 from Rhizopus microsporus, codon-optimized (protein, listed as Rhizopus microsporus)
chain: MDHLIQVYNSSTQVLIPVLQKRSKASYITAAIALIIAQRLYSYFRVPKHLRGFPKLPYFGIAKSLLTRESPRERVKKYVLPIIDENDGFYISKIPFGWMLYIANPVAAKQLLLKSSGFPKNHGLLDNMGENLFVEFIGKDNVALSNGDTWKRQRKVMNPAFHHSLPIKTMSKVVFSLISAIEQANGTIPVASAMQNFTLDTLGLAIFGFDFKALQGDPDEWTKTYRFVSDCIFDPVINVFSSYSFIIDRIYPRRRRGAIATKKLSEKFLKIAQQKRKEIKSGAYADVPDNEKDLLTLMLEAEEKGDTWTSEDELRHNIAILFVAGHDTTAHALSFCFYHLAKNKDVQQKLRKEVLSILGDKPVDVVPTVEQLKNMQYLNMVIKENLRINSPADMLFSRDVKEDTILANTLIPKGTVVTINIEALHYNPRLWHNPDQFDPERFAPGGEHEKHEGMTWLPFSNGTRQCLGMNFSLFEQRLVIAMILKKYEISIPEDSIHRDHIVSDIPFNGAPKSLKLTFTKRH
B3: CYPDN9: cytochrome P450 homolog A0A1X2HQ99 from Syncephalastrum racemosum, codon-optimized (protein, listed as Syncephalastrum racemosum)
chain: MFRPPAGLPKLPIINYFRLLWALYRKESPTRRSQRLILPALQKHNAKAYLAKVPYTWTVYLVDPVAVKTFLMRNGTFPKTMESIDAFDQSHPNVQFWGRENLGFSVGDSWKRQRKIIFPAFRRAMPVQLFGELVPKMFDLIDKEHSTIAIDLMQRFTLDALGLAAFSFDFHALDNHNNEWEVAYEMIRKELVSPLTNMLARYDYILKYIIPGRAEKQAAVSKINHLLSDIANERRKMIKRNPDMLKVPDSEKDLLTLMLESDLENSDDPASEELIRANLATFFLAGHDTTANTLSFWLYHLAMYKDIQKKAREEVIETMGGAPEDIVPTAEQLKKMKYMDCIIKENLRFMGPALELFPRIAKEDYNLNGIFIPKGTRVSVDLHTLHHHPDVWKEPERFDPLRFVENGEHSKHEGLSWIAFSSGARVCIGQNFSLVEQRVVMSMLLRRYEWDIPEDSIHREGLQLKDTNNQAPRSLEIVFKKRY
modifications: codon-optimized

Tested on: thebaine
Assay: Demethylation of thebaine by new cytochrome P450 fungal and plant homologs co-expressed with CPRs in S. cerevisiae
Conditions: 0.5 mM thebaine, SC or DELFT media pH 7, 72 h; for Northebaine production: 30° C., co-expressed with Cel_CPR_co, Tp_CPR_5866, Tp_CPR_DN10898 or POR1

Molecule	O-demethylation activity compared to the positive control Ps_CODM_co	O-demethylation activity, converting thebaine to oripavine	nororipavine production in the presence of thebaine	Northebaine production
B1	substantially higher	display 0-demethylation activity	detected	+
B2	substantially higher	display 0-demethylation activity	detected	+
B3				−
